This is an account of results in US10106589B2, “Compositions and methods for immunomodulation” (FUNDACIO INSTITUT D'INVESTIGACIO BIOMEDICA DE BELLVITGE …, priority 2011, dated 2018).

The subject of data set [1] is human Mo-DCs. As to the kind of experiment: Flow cytometry of cell surface markers on treated, LPS-matured Mo-DCs. The settings on record: CCP6-based peptides at 100 μM. A general note: A flow cytometer gives signals particle by particle.
A further data set has as its system allogeneic CD3+ T cells. As to the kind of experiment: Mixed leukocyte reaction ([3H]-thymidine incorporation). The settings on record: Mo-DCs pre-incubated and matured with LPS; DC:T 1:40, 1:80, 1:160; 5 days. Format: cell-based, human. How it is done: CD3^+ T cells (10^5/well) and C4BP-treated (α7β1 and α7β0), or Factor H-treated, and LPS-activated Mo-DCs were seeded in a 96-well round-bottom plate at various DC:T cell ratios (1:40, 1:80 and 1:160) and cultured in X-VIVO 15 medium (Biowittaker, Walkersville, Md.) supplemented with 100 μg/ml of streptomycin, 100 IU/ml of penicillin and 2 mM L-glutamine (all from Invitrogen) plus 2% Human AB Serum. Allospecific proliferation was measured after 5 days of incubation. At day 4, the […] [^3H]-thymidine (1 μCi/well, Perkin Elmer, Boston, Mass.) was added, followed by incubation for another 16 h. Labeled cells were then harvested onto glass-fiber filters with a Filtermate Harvester (Packard, Meriden, Conn.), and the T cell proliferation rate was determined by the amount of [^3H]-thymidine incorporation, which was measured in a TopCount NXT counter (Packard). Results are reported as the mean cpm±SD of thymidine incorporation in quadruplicate culture wells.
For orientation: Uptake of a labelled nucleoside into DNA is a usual measure of proliferation.

In data set [2] the test system is human Mo-DCs. As to the kind of experiment: Scanning electron microscopy of Mo-DC surface morphology. The settings on record: SEM after 48 h LPS maturation. Format: cell-based. How it is done:
Monocytes were seeded on glass slides covered with either poly-L-lysine (25 μg/ml) or fibronectin (42 μg/ml), cultured for 5 days in complete RPMI medium supplemented with 800 U/ml GM-CSF, 500 U/ml IL-4, and the C4BP isoforms α7β1, α7β0, or Factor H (10 μg/ml), and further stimulated with LPS for 48 hours in the same medium. The resulting DCs were fixed in 1% paraformaldehyde and 1.25% glutaraldehyde in cacodylate buffer for 2 h. Finally, the cells were post-fixed in 1% OsO4, and dehydrated with graded series of ethanol followed by acetone. After dehydration the cells were dried in a critical-point dryer and coated with gold before observation by scanning electron microscopy (Zeiss DSM940A).

The test system of data set [3] is human Mo-DCs. As to the kind of experiment: Flow cytometry of cell surface markers on treated, LPS-matured Mo-DCs. Format: cell-based. As to conditions: treated throughout differentiation and maturation, LPS-matured; for CD1a expression / CD80 expression / CD83 expression / CD86 expression: dose-dependent; for expression of surface markers (CD14, HLA-DR, CD40, CD80, CD83, CD86, CD1a): vs untreated mDC. How it is done:
Peripheral blood mononuclear cells (PBMCs) were obtained from buffy coat preparations belonging to healthy donors from the Blood and Tissue Bank (Barcelona, Spain) after Ficoll-Paque™ density centrifugation (GE Healthcare Bio-Sciences AB; Uppsala, Sweden). Monocytes were purified by two different methods: 1) Cells were plated at 1×10^6 cells/ml in 60 mm culture plates (Corning, Spain) in RPMI without serum and allowed to adhere for 2 h at 37° C. in 5% CO2. The non-adherent cells were removed by washing in PBS. […] 2) Cells were purified using colloidal super-paramagnetic microbeads conjugated with monoclonal mouse anti-human CD14 antibodies (MACS, Miltenyi Biotec, Auburn, Calif., or EasySep® Positive Selection Cocktail, StemCell Technologies, Grenoble, France). The purity of CD14^+ cells was tested by CD14 staining and flow cytometry analysis (>90% CD14^+ cells). Monocyte-derived DCs (Mo-DCs) were generated supplementing the monocyte cultures with complete RPMI 1640 medium plus GM-CSF (800 UI/ml) and IL-4 (500 UI/ml) (both from Gentaur, Kampenhout, Belgium) at day 0 and day 3 of culture. For DC maturation, at day 5 iDCs were further stimulated for 48 h with 5 μg/ml LPS (Escherichia coli 055.B5, Sigma L2880, Copenhagen, Denmark).
Cell surface phenotypes were analyzed using the following monoclonal antibodies: FITC-conjugated anti-HLA-DR (Immu-357), FITC-conjugated anti-CD83 (HB15a), FITC-conjugated anti-CD14 (RMO52), PE-conjugated anti-CD40 (MAB89), PE-conjugated anti-CD1a (BL6), PE-conjugated anti-CD80 (MAB104), PE-conjugated anti-CD86 (HA5.2B7) (all from Beckman-Coulter), Alexa Fluor 488-conjugated anti-CCR7 (TG8/CCR7, Biolegend, San Diego, Calif.), and the respective isotype controls from the same commercial sources. After washing with PBS, cells were subsequently stained with 3 μl MoAb/10^5 cells in 100 μl of FACS buffer (PBS containing 1% BSA and 0.1% sodium azide) for 20 min at room temp. Stained cells were analysed using a FACScalibur (Becton Dickinson). Mo-DCs were gated according to forward scatter (FSC) and side scatter (SSC) parameters. The results were analysed using CellQuestPro software (Becton Dickinson).
Both the different C4BP isoforms (α7β1, α7β0 and α6β0), and Factor H were added at 2, 5 and 10 μg/ml throughout Mo-DC differentiation, maturation, or both. Namely, for the differentiation assays the proteins were added at day 0 and replenished at day 3. For the maturation assays the proteins were added at day 5, either alone or combined with LPS. Finally, for the differentiation plus maturation assays the proteins were added at days 0, 3 and 5 (at the last time point, combined with LPS).

The test system of data set [4] is human Mo-DCs. As to the kind of experiment: Quantitative RT-PCR of CCR7, IDO, BIC-1, SOD2 in Mo-DCs. In kind it is cell-based. As to conditions: RT-qPCR; pretreated, LPS-matured Mo-DCs. How it is done: Mo-DCs (10^6/condition) were harvested at day 7 and the mRNA was extracted using the RNeasy RNA Isolation kit (Qiagen) and incubated with RNase-free DNase I (Ambion, Austin, Tex.) according to the manufacturer's protocol. A two-step real-time RT-PCR technique was used to determine the relative mRNA levels of human CCR7, BIC-1, IDO and SOD2. Reverse transcription reactions were performed with 500 ng of total RNA using the Omniscript RT kit (Qiagen). Quantification of mRNA levels was performed by real-time polymerase chain reaction (PCR) with the use of the LightCycler technology (Roche Molecular Biochemicals, Indianapolis, Ind.). The following primers were used: CCR7-f (5′-TGGGCATCTGGATACTAGC-3′) (SEQ ID NO:6), CCR7-r (5′-AAGAAAGGGTTGACGCAGC-3′) (SEQ ID NO:7); IDO-f (5′-[…]-3′) (SEQ ID NO:8); IDO-r (5′-[…]-3′) (SEQ ID NO:9); BIC-1-f (5′-[…]-3′) (SEQ ID NO:10), BIC-1-r (5′-[…]-3′) (SEQ ID NO:11); SOD2-f (5′-GACAAACCTCAGCCCTAAC-3′) (SEQ ID NO:12), SOD2-r (5′-[…]-3′) (SEQ ID NO:13), yielding products of 435, 227, 296 bp, and 248 bp, respectively. These gene-specific primer pairs were designed using Oligo 4.0 and Primer 3 software packages (MBI, Cascade, Colo.) and selected to prevent primer-dimer formation.
All samples were normalized with the use of the following primer set for the constitutively expressed human cyclophilin gene: CypA-f (5′-[…]-3′) (SEQ ID NO:14) and CypA-r (5′-CACCACATGCTTGCCATCC-3′) (SEQ ID NO:15) (Pluvinet R. et al., 2004, Blood. 104: 3642-3646). All primers were purchased from Bonsai Technologies (Copenhagen, Denmark).
PCR amplifications were performed in a 20 μl volume containing 2 μl ready-to-use reaction mix, 10×DNA Master SYBR Green I (Roche Molecular Biochemicals); MgCl2 (3 mM for CCR7; 4 mM for BIC-1 and SOD2, and 5 mM for IDO); 0.15 μM of each primer; 5% dimethyl sulfoxide (DMSO); and 75 ng cDNA as template. The amplification program used an initial denaturation at 95° C. for 10 min, followed by 45 cycles: 95° C. for 1 sec; 58° C. (CCR7 and SOD2)/60° C. (BIC-1 and IDO) for 5 sec; 72° C. for 10 sec.
Background: Quantitative PCR measures a nucleic acid by following its amplification.

Entries after “also recorded” stand apart in the source; their conditions may differ.

With “PS6-03: SEQ ID NO:4 EISFSSH ETSRFSAISQ GDGTWSPRTP SSG, CCP6-derived peptide (EISFSSHETSRFSAISQGDGTWSPRTPSSG; PS6-03)”, in the data set with human Mo-DCs [1], the “CD83 upregulation on LPS-matured Mo-DCs” value is “seemed to prevent CD83 upregulation”.

Take “PS6-04: SEQ ID NO:5 ITQHRK SRPANHSV, 14-mer CCP6-derived peptide (ITQHRKSRPANHSV; PS6-04)”: the “CD83 upregulation on LPS-matured Mo-DCs” value in the data set on human Mo-DCs [1] is listed as “comparable effect than its C4BP α6β0 counterpart”.

In the case of “Ac-HRKSRPANHSVYFYGDEISFSSHETSRFSA-NH2 [PS6-02]”, in the data set with human Mo-DCs [1], the “CD83 upregulation on LPS-matured Mo-DCs” value is listed as “seemed to prevent CD83 upregulation” and the “toxicity to the DCs” value is listed as “toxic”.

B1: C4BP α7β0: C4BP isoform exclusively composed of 7 α-chains, purified from pooled human plasma (protein, UniProt P04003 49-597, looked up)
C4b-binding protein alpha …: NCGPPPTLSFAAPMDITLTETRFKTGTTLKYTCLPGYVRSHSTQTLTCNSDGEWVYNTFCIYKRCRHPGELRNGQVEIKTDLSFGSQIEFSCSEGFFLIGSTTSRCEVQDRGVGWSHPLPQCEIVKCKPPPDIRNGRHSGEENFYAYGFSVTYSCDPRFSLLGHASISCTVENETIGVWRPSPPTCEKITCRKPDVSHGEMVSGFGPIYNYKDTIVFKCQKGFVLRGSSVIHCDADSKWNPSPPACEPNSCINLPDIPHASWETYPRPTKEDVYVVGTVLRYRCHPGYKPTTDEPTTVICQKNLRWTPYQGCEALCCPEPKLNNGEITQHRKSRPANHCVYFYGDEISFSCHETSRFSAICQGDGTWSPRTPSCGDICNFPPKIAHGHYKQSSSYSFFKEEIIYECDKGYILVGQAKLSCSYSHWSAPAPQCKALCRKPELVNGRLSVDKDQYVEPENVTIQCDSGYGVVGPQSITCSGNRTWYPEVPKCEWETPEGCEQVLTGKRLMQCLPNPEDVKMALEVYKLSLEIEQLELQRDSARQSTLDKEL
Consider B1, for which the “allogeneic T cell proliferation” value with allogeneic CD3+ T cells is “significantly less T cell proliferation”. The “surface morphology of Mo-DCs” value in the data set with human Mo-DCs [2] was “absence of long dendritic projections; also recorded: reversed the “porcupine like” DC morphology”. Moreover, in the data set on human Mo-DCs [3], the CD1a expression result is “significantly down-regulated”, the CD80 expression entry is “significantly down-regulated”, the CD83 expression result is listed as “significantly down-regulated” and the CD86 expression entry is reported as “significantly down-regulated”. Besides, the “expression of surface markers (CD14, HLA-DR, CD40, CD80, CD83, CD86, CD1a)” value in the data set with human Mo-DCs [3] is “inhibit up-regulation”. For the same molecule, in the data set with human Mo-DCs [4], the BIC-1 transcript level entry is on record as “significantly down-regulated”, the CCR7 transcript level entry was “significantly down-regulated” and the IDO transcript level entry was “significantly down-regulated”.

B2: C4BP α6β0: polymeric recombinant full-length C4BP of 6 α-chains, expressed in eukaryotic cells (protein, UniProt P04003 49-597, looked up)
C4b-binding protein alpha …: NCGPPPTLSFAAPMDITLTETRFKTGTTLKYTCLPGYVRSHSTQTLTCNSDGEWVYNTFCIYKRCRHPGELRNGQVEIKTDLSFGSQIEFSCSEGFFLIGSTTSRCEVQDRGVGWSHPLPQCEIVKCKPPPDIRNGRHSGEENFYAYGFSVTYSCDPRFSLLGHASISCTVENETIGVWRPSPPTCEKITCRKPDVSHGEMVSGFGPIYNYKDTIVFKCQKGFVLRGSSVIHCDADSKWNPSPPACEPNSCINLPDIPHASWETYPRPTKEDVYVVGTVLRYRCHPGYKPTTDEPTTVICQKNLRWTPYQGCEALCCPEPKLNNGEITQHRKSRPANHCVYFYGDEISFSCHETSRFSAICQGDGTWSPRTPSCGDICNFPPKIAHGHYKQSSSYSFFKEEIIYECDKGYILVGQAKLSCSYSHWSAPAPQCKALCRKPELVNGRLSVDKDQYVEPENVTIQCDSGYGVVGPQSITCSGNRTWYPEVPKCEWETPEGCEQVLTGKRLMQCLPNPEDVKMALEVYKLSLEIEQLELQRDSARQSTLDKEL
As to B2, the “surface morphology of Mo-DCs” value in the data set with human Mo-DCs [2] was “reversed the “porcupine like” DC morphology”. Moreover, in the data set with human Mo-DCs [3], the CD1a expression entry is reported as “significantly down-regulated”, the CD80 expression entry was “significantly down-regulated”, the CD83 expression result was “significantly down-regulated” and the CD86 expression entry was “significantly down-regulated”. In the data set on human Mo-DCs [3], the “expression of surface markers (CD14, HLA-DR, CD40, CD80, CD83, CD86, CD1a)” value is “inhibit up-regulation”. In addition, in the data set with human Mo-DCs [4], the BIC-1 transcript level entry was “significantly down-regulated”, the CCR7 transcript level result is recorded as “significantly down-regulated” and the IDO transcript level entry is recorded as “significantly down-regulated”.
